Assay results: patent US20180327473A1 (published 2018)

T1: human alpha fetoprotein (hAFP158) peptide on HLA-A2 (human)
T1 peptide: FMNKFIYEI

B1: mTCR-1 (TCR, V domains shown)
Valpha: QQKVQQSPESLIVPEGGMASLNCTSSDRNVDYFWWYRQHSGKSPKMLMSIFSNGEKEEGRFTVHLNKASLHTSLHIRDSQPSDSALYLCAASITNAYKVIFGKGTHLHVLP
Vbeta: EAAVTQSPRNKVTVTGGNVTLSCRQTNSHNYMYWYRQDTGHGLRLIHYSYGAGNLQIGDVPDGYKATRTTQEDFFLLLELASPSQTSLYFCASSDAGTSQNTLYFGAGTRLSVL
B2: mTCR-2 (TCR, V domains shown)
Valpha: QQKVQQSPESLIVPEGGMASLNCTSSDRNVDYFWWYRQHSGKSPKMLMSIFSNGEKEEGRFTVHLNKASLHTSLHIRDSQPSDSALYLCAASTVNAYKVIFGKGTHLHVLP
Vbeta: EAAVTQSPRNKVTVTGGNVTLSCRQTNSHNYMYWYRQDTGHGLRLIHYSYGAGNLQIGDVPDGYKATRTTQEDFFLLLELASPSQTSLYFCASSDAGTSQNTLYFGAGTRLSVL
B3: mTCR-3 (TCR, V domains shown)
Valpha: QQKVQQSPESLIVPEGGMASLNCTSSDRNVDYFWWYRQHSGKSPKMLMSIFSNGEKEEGRFTVHLNKASLHTSLHIRDSQPSDSALYLCAASMAGGYKVVFGSGTRLLVSP
Vbeta: EAAVTQSPRNKVTVTGGNVTLSCRQTNSHNYMYWYRQDTGHGLRLIHYSYGAGNLQIGDVPDGYKATRTTQEDFFLLLELASPSQTSLYFCASSDAGTAQNTLYFGAGTRLSVL
B4: mTCR-6 (TCR, V domains shown)
Valpha: QQKVQQSPESLIVPEGGMASLNCTSSDRNVDYFWWYRQHSGKSPKMLMSIFSNGEKEEGRFTVHLNKASLHTSLHIRDSQPSDSALYLCAASMINAYKVIFGKGTHLHVLP
Vbeta: EAAVTQSPRNKVTVTGGNVTLSCRQTNSHNYMYWYRQDTGHGLRLIHYSYGAGNLQIGDVPDGYKATRTTQEDFFLLLELASPSQTSLYFCASSDAGVSQNTLYFGAGTRLSVL
B5: mTCR-8 (TCR, V domains shown)
Valpha: QQKVQQSPESLIVPEGGMASLNCTSSDRNVDYFWWYRQHSGKSPKMLMSIFSNGEKEEGRFTVHLNKASLHTSLHIRDSQPSDSALYLCAASISGGYKVVFGSGTRLLVSP
Vbeta: EAAVTQSPRNKVTVTGGNVTLSCRQTNSHNYMYWYRQDTGHGLRLIHYSYGAGNLQIGDVPDGYKATRTTQEDFFLLLELASPSQTSLYFCASSDAGTSQNTLYFGAGTRLSVL
B6: mTCR-10 (TCR, V domains shown)
Valpha: QQKVQQSPESLIVPEGGMASLNCTSSDRNVDYFWWYRQHSGKSPKMLMSIFSNGEKEEGRFTVHLNKASLHTSLHIRDSQPSDSALYLCAASIVGGYKVVFGSGTRLLVSP
Vbeta: EAAVTQSPRNKVTVTGGNVTLSCRQTNSHNYMYWYRQDTGHGLRLIHYSYGAGNLQIGDVPDGYKATRTTQEDFFLLLELASPSQTSLYFCASSDHGTGQNTLYFGAGTRLSVL
B7: mTCR-11 (TCR, V domains shown)
Valpha: QQKVQQSPESLIVPEGGMASLNCTSSDRNVDYFWWYRQHSGKSPKMLMSIFSNGEKEEGRFTVHLNKASLHTSLHIRDSQPSDSALYLCAASKTGGYKVVFGSGTRLLVSP
Vbeta: EAAVTQSPRNKVTVTGGNVTLSCRQTNSHNYMYWYRQDTGHGLRLIHYSYGAGNLQIGDVPDGYKATRTTQEDFFLLLELASPSQTSLYFCASSDAGTSQNTLYFGAGTRLSVL
B8: mTCR-17 (TCR, V domains shown)
Valpha: QQKVQQSPESLIVPEGGMASLNCTSSDRNVDYFWWYRQHSGKSPKMLMSIFSNGEKEEGRFTVHLNKASLHTSLHIRDSQPSDSALYLCAASMTGGYKVVFGSGTRLLVSP
Vbeta: EAAVTQSPRNKVTVTGGNVTLSCRQTNSHNYMYWYRQDTGHGLRLIHYSYGAGNLQIGDVPDGYKATRTTQEDFFLLLELASPSQTSLYFCASSDAGTSQNTLYFGAGTRLSVL
B9: mTCR-38 (TCR, V domains shown)
Valpha: QQKVQQSPESLIVPEGGMASLNCTSSDRNVDYFWWYRQHSGKSPKMLMSIFSNGEKEEGRFTVHLNKASLHTSLHIRDSQPSDSALYLCAATLTGGYKVVFGSGTRLLVSP
Vbeta: EAAVTQSPRNKVTVTGGNVTLSCRQTNSHNYMYWYRQDTGHGLRLIHYSYGAGNLQIGDVPDGYKATRTTQEDFFLLLELASPSQTSLYFCASSDAGTSQNTLYFGAGTRLSVL

Biological target: T1, human alpha fetoprotein (hAFP158) …
Experiment: multimer staining

Binder | binding result
B1 | recognises
B2 | recognises
B3 | recognises
B4 | recognises
B5 | recognises
B6 | recognises
B7 | recognises
B8 | recognises
B9 | recognises
